Measurements from patent US20240083974A1 (ETH Z RICH, published 2024).
Ends that are not written are not given here.

Target: T1, artificial transmembrane protein with eYFP (enhanced yellow fluorescent protein) as the receptor structure (Aequorea victoria (Water jellyfish) …, UniProt P42212 2-238 = GFP)
T1 construct: Control construct in living cells; not shown: Three are signal peptide-SNAPf-PdgfrTM-Li
Assay: label-free diffraction signal (focal molography) from living cells on a nanopatterned waveguide after injection of the peptide

B1: Grb2-targeting peptide (peptide)
peptide: KKWKMRRNPFWIKIQRCCGIRVVDNSPPPPLPPRRRRSAPSPTRV-NH2
modifications: cysteine pairing not given here
notes: The hyphen between the two Cys may mean two peptides joined by a disulfide; also called P6; protein specifically targeting Grb2
  binding result: no binding
